# Literature values as cited in patent US20050019270A1, “Formulation of powder containing nanoparticles for aerosol delivery to the lungs” (priority 2003, published 2005).
# Settings: spray drying with polysorbate 20 added
substance,measurement,value
recombinant human growth hormone: Protein in a prior spray drying study with polysorbate 20,surface aggregation,< 2%
